Data: US20050282743A1, “Molecular interactions in cells” (Arbor Vita Corporation, priority 2001, published 2005)
Ends that are not written are not given here. * marks the point of attachment. Biotin = O=C1N[C@H]2[C@H](CS[C@H]2CCCCC(=O)*)N1

Key:
Type in all cases: binding
[1] = biological target: T1, PDZ protein (GST-PDZ fusion) (Homo sapiens, UniProt O14907); test: G' assay (10 uM PL peptide), results of TABLE 7 and TABLE 12; conditions: PDZ TIP1, PDZ Domain 1
T1 construct: made in house; host or cells: E. coli (DH5alpha, BL21 or JM109)
T1 sequence (O14907 1-124): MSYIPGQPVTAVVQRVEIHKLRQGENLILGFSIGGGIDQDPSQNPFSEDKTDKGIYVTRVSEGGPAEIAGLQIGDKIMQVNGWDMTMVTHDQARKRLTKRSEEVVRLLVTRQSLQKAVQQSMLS
Description: (§1) Each page of TABLE 7 and 12 includes seven columns. The columns in each table are numbered from left to right such that the left-most column in each table is column 1 and the right-most column in each table is column 7. Thus, the first column in each table is labeled “AVC ID”; this column simply lists an internal reference number used to refer to the carboxyl-terminal amino acids of the PL proteins listed in the second column. […] All PL peptides were biotinylated at the amino-terminus and the sequences of these PL peptides are presented in TABLE 8 (see end of specification).
(§2) This column provides the gene name for the PDZ portion of the GST-PDZ fusion that interacts with the PDZ-ligand to the left. For PDZ domain-containing proteins with multiple domains, the domain number is listed to the right of the PDZ (i.e., in column 5 labeled “PDZ Domain”), and indicates the PDZ domain number when numbered from the amino-terminus to the carboxy-terminus.
(§3) The third column labeled “Peptide Optimal Concentration” in the tables is a number reflective of the binding interaction between the PL protein and PDZ protein. […] The column labeled “Protein Optimal Concentration” refers to the protein concentration used to assay PL interaction (in ug/ml); a ‘0’ is indicative of 5 ug/ml protein concentration; any other value represents the concentration (in ug/ml) used to determine the dissociation constant for a given interaction.
(§4) Finally, the seventh column labeled “Classification” is another measure of the level of binding. In particular, it provides an absorbance value at 450 nm which indicates the amount of PL peptide bound to the PDZ protein. The following numerical values have the following meanings: ‘1’—A450 nm 0-1; ‘2’—A450 nm 1-2; ‘3’—A450 nm 2-3; ‘4’—A450 nm 3-4; ‘5’—A450 nm of 4 more than 2× repeated; ‘0’—A450 nm 0, i.e., not found to interact. Thus, higher numbers indicate stronger interactions.
(§5) For convenience, the assay conditions described in this section are referred to as the “G′ assay” and the “G″ assay,” with the specific conditions described in the preceding section on G assays being referred to as the “G^0 assay.” The “G′ assay” is identical to the “G^0 assay” except at step (2) the peptide concentration is 10 uM instead of 20 uM.

DLG-1 = biological target: T2, DLG-1 (Homo sapiens, UniProt Q12959); test: G assay competition of short unlabeled peptides with biotinylated 20-mers (Example 6, TABLE 6); conditions: 100 = no competitor
T2 construct: protein spans from amino terminal end of first PDZ domain to carboxy-terminal end of third PDZ domain in frame with GST in vector; made in house; host or cells: E. coli DH5alpha
Description: (§6) The potential for unlabeled 8-mers and 3-mers to compete for binding with biotinylated 20-mers to PDZ domains was examined. Interactions between a PDZ domain and two or more biotinylated peptides mimicking PDZ ligands identified through the ‘G Assay’ were used as model interactions. Short, 3 or 8 amino acid, unlabeled peptides were synthesized by standard techniques and used at variable concentrations with a set concentration of biotinylated 20-mer. Ability of both the 3-mer and 8-mer to inhibit longer peptide binding was observed, making PDZ:PL interactions an attractive target for design of small molecule or peptide therapeutics.
(§7) Peptides representing the C-terminal 3, 8 or 20 amino acids of a PDZ ligand were synthesized by standard FMOC chemistry and biotinylated if not used as an unlabeled competitor. Peptides three amino acids in length were acetylated to more properly mimic the peptide bond without introducing an amino-terminal charged group. Peptides were purified by reverse phase high performance liquid chromatography (HPLC) using a Vydac 218TP C18 Reversed Phase column having the dimensions of 10*25 mm, 5 um. Approximately 40 mg of peptide was dissolved in 2.0 ml of and aqueous solution of 49.9% acetonitrile and 0.1% Tri-Fluoro acetic acid (TFA). This solution was then injected into the HPLC machine through a […] syringe filter (Millipore). Buffers used to get a good separation are (A) distilled water with 0.1% TFA and (B) 0.1% TFA with Acetonitrile.
(§8) The G Assay was performed as described in EXAMPLE 3 with the exception that when a short competitor was used, 30 ul of competitor peptide (at twice the final concentration) was mixed with 30 ul biotinylated 20-mer (at twice the final concentration) and then added to the well.
(§9) PSD-95 and DLG-1 were incubated in the wells at 5 ug/ml as described in the G Assay protocol. Biotinylated 20-mer peptides used were 20 uM CLASP-2, 20 uM CD46, 10 uM CD95, and 10 uM KV1.3 (find sequences of peptides in TABLE 8). Competitors (unlabeled, short peptides) tested against each of the biotinylated peptides were 50 uM 8-mer of CD95, 100 uM 8-mer of CD46, 50 uM 8-mer of CLASP-2, and 1 mM and 500 uM acetylated 3-mer of CLASP-2. To deduce sequences, refer to TABLE 8. All absorbances were read at 450 nm after stopping TMB detection reaction at 30 min. Results were normalized in each group by dividing its A450 by the A450 of the PDZ/peptide binding in the absence of competitor and converting to percentage by multiplying by 100.

PSD-95 = biological target: T3, PSD-95 (Homo sapiens, UniProt P78352); test: as above; conditions: for % binding: 100 = no competitor
T3 construct: protein spans from amino terminal end of first PDZ domain to carboxy-terminal end of third PDZ domain in frame with GST in vector; made in house; host or cells: E. coli DH5alpha
Description: as §6, §7, §8, §9

[2] = test system: PDZ protein (GST-PDZ fusion); test: G' assay (10 uM PL peptide), results of TABLE 7 and TABLE 12
Description: as §1, §2, §3, §4, §5

[3] = biological target: T4, PDZ protein (GST-PDZ fusion) (Homo sapiens, UniProt Q6P0Q8); test: as above
T4 construct: made in house; host or cells: E. coli (DH5alpha, BL21 or JM109)
Description: as §1, §2, §3, §4, §5

[4] = biological target: T5, PDZ protein (GST-PDZ fusion) (Homo sapiens, UniProt O15018); test: as above; conditions: PDZ AIPC, PDZ Domain 1
T5 construct: made in house; host or cells: E. coli (DH5alpha, BL21 or JM109)
Description: as §1, §2, §3, §4, §5

[5] = biological target: T6, PDZ protein (GST-PDZ fusion) (Homo sapiens, UniProt Q13796); test: as above; conditions: PDZ hAPXL, PDZ Domain 1
T6 construct: made in house; host or cells: E. coli (DH5alpha, BL21 or JM109)
Description: as §1, §2, §3, §4, §5

[6] = biological target: T7, PDZ protein (GST-PDZ fusion) (Homo sapiens, UniProt Q9NZN5); test: as above; conditions: PDZ KIAA0382, PDZ Domain 1
T7 construct: made in house; host or cells: E. coli (DH5alpha, BL21 or JM109)
Description: as §1, §2, §3, §4, §5

[7] = biological target: T8, PDZ protein (GST-PDZ fusion) (Homo sapiens, UniProt Q9P202); test: as above; conditions: PDZ KIAA1526, PDZ Domain 1
T8 construct: made in house; host or cells: E. coli (DH5alpha, BL21 or JM109)
T8 sequence (Q9P202 1-907): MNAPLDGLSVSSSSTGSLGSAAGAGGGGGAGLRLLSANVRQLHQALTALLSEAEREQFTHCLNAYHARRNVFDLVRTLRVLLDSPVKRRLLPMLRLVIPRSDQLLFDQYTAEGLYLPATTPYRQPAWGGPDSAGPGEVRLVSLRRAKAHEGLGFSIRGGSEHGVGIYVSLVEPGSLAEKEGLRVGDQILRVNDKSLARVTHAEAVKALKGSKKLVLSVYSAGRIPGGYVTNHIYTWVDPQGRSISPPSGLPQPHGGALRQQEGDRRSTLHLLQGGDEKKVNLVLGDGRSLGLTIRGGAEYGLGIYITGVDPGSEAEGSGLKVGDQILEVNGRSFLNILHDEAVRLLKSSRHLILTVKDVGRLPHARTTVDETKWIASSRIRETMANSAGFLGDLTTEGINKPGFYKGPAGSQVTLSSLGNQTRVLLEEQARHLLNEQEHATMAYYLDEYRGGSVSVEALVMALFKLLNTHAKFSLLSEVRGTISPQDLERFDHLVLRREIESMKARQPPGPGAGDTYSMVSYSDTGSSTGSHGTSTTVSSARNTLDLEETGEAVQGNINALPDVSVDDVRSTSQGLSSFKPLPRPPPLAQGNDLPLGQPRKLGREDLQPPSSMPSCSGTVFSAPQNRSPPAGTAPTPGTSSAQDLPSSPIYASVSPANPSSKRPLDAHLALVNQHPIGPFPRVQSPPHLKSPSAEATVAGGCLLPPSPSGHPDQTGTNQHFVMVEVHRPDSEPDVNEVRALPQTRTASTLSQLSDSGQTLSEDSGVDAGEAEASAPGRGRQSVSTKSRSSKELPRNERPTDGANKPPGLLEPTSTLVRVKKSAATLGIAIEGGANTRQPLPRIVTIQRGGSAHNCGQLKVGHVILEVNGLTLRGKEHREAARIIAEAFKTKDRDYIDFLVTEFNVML
Description: as §1, §2, §3, §4, §5

[8] = biotinylated 20-mer CD46 20 uM, competitor 50 uM
[9] = biotinylated 20-mer CD95 10 uM, competitor 50 uM
[10] = biotinylated 20-mer CLASP-2 20 uM, competitor 50 uM
[11] = biotinylated 20-mer CD46 20 uM, competitor 100 uM
[12] = biotinylated 20-mer CD95 10 uM, competitor 100 uM
[13] = biotinylated 20-mer CLASP-2 20 uM, competitor 100 uM
[14] = biotinylated 20-mer KV1.3 10 uM, competitor 100 uM
[15] = biotinylated 20-mer CD46 20 uM, competitor 500 uM
[16] = biotinylated 20-mer CD46 20 uM, competitor 1000 uM
[17] = biotinylated 20-mer CD95 10 uM, competitor 500 uM
[18] = biotinylated 20-mer CD95 10 uM, competitor 1000 uM
[19] = biotinylated 20-mer CLASP-2 20 uM, competitor 500 uM
[20] = biotinylated 20-mer CLASP-2 20 uM, competitor 1000 uM

T3 sequence (P78352 58-398 limits assumed): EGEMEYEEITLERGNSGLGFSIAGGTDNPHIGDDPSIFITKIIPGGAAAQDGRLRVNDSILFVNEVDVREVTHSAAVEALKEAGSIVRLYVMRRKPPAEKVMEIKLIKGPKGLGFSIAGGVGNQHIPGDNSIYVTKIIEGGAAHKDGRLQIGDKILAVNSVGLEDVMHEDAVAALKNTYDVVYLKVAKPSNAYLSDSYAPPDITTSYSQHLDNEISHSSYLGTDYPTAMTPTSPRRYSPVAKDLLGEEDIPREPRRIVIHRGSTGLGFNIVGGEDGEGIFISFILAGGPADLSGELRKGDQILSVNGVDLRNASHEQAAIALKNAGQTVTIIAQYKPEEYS
T4 sequence (Q6P0Q8 whole entry, the tested form may be a part): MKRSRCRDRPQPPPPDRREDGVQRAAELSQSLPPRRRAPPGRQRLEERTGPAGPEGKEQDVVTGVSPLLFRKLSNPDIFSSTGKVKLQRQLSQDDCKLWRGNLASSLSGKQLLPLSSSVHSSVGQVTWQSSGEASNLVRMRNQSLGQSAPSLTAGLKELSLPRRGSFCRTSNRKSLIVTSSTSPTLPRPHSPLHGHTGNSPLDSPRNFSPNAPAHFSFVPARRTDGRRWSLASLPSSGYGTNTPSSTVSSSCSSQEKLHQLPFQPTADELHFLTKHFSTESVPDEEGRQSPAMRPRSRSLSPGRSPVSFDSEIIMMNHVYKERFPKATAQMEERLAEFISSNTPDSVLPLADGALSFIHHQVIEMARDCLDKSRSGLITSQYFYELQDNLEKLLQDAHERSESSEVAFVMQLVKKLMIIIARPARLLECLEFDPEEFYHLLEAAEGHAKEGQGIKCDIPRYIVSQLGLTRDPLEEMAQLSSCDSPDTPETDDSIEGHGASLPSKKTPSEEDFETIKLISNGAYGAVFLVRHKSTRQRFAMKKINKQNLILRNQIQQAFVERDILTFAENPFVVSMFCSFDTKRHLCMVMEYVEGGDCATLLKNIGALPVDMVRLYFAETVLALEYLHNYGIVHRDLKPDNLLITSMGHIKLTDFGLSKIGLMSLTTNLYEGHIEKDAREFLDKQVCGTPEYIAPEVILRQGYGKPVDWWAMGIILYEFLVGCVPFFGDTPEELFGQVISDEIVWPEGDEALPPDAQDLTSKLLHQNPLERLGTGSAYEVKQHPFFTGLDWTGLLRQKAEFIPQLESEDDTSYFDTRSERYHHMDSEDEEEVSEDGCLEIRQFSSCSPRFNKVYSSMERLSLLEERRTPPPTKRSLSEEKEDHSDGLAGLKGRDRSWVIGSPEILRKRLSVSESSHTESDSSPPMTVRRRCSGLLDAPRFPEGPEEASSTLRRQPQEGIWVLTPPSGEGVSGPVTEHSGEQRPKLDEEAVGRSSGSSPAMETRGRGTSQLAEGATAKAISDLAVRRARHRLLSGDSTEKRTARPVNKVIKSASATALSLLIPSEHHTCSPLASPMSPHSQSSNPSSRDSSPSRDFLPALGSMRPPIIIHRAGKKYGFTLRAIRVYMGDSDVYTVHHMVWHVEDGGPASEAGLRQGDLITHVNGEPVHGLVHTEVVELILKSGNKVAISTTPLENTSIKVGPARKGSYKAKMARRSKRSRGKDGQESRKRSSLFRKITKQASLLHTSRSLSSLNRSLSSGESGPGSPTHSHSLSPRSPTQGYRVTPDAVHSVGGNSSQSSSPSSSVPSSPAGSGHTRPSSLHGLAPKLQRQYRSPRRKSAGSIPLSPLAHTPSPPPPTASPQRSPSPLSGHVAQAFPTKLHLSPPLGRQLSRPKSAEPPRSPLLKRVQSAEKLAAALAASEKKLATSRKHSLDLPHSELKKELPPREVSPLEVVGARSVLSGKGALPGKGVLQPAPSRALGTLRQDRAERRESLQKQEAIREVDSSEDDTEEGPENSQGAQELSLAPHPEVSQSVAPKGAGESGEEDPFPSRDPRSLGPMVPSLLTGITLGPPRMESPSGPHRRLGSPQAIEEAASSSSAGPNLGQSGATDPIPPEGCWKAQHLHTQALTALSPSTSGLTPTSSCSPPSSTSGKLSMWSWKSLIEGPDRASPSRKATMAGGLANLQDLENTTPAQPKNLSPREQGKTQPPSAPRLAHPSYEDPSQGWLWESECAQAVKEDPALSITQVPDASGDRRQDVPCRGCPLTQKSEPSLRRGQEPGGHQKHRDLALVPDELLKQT
T2 sequence (Q12959 224-546 limits assumed): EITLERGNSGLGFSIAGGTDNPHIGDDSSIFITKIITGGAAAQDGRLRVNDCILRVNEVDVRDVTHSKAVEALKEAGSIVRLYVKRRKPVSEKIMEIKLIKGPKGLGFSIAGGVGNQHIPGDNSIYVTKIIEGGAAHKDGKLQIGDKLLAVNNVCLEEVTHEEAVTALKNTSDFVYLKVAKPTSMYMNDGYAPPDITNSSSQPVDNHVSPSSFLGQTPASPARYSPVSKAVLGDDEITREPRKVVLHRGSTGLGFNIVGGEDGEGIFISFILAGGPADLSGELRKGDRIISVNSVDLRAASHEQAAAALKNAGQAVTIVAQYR
T6 sequence (Q13796 whole entry, the tested form may be a part): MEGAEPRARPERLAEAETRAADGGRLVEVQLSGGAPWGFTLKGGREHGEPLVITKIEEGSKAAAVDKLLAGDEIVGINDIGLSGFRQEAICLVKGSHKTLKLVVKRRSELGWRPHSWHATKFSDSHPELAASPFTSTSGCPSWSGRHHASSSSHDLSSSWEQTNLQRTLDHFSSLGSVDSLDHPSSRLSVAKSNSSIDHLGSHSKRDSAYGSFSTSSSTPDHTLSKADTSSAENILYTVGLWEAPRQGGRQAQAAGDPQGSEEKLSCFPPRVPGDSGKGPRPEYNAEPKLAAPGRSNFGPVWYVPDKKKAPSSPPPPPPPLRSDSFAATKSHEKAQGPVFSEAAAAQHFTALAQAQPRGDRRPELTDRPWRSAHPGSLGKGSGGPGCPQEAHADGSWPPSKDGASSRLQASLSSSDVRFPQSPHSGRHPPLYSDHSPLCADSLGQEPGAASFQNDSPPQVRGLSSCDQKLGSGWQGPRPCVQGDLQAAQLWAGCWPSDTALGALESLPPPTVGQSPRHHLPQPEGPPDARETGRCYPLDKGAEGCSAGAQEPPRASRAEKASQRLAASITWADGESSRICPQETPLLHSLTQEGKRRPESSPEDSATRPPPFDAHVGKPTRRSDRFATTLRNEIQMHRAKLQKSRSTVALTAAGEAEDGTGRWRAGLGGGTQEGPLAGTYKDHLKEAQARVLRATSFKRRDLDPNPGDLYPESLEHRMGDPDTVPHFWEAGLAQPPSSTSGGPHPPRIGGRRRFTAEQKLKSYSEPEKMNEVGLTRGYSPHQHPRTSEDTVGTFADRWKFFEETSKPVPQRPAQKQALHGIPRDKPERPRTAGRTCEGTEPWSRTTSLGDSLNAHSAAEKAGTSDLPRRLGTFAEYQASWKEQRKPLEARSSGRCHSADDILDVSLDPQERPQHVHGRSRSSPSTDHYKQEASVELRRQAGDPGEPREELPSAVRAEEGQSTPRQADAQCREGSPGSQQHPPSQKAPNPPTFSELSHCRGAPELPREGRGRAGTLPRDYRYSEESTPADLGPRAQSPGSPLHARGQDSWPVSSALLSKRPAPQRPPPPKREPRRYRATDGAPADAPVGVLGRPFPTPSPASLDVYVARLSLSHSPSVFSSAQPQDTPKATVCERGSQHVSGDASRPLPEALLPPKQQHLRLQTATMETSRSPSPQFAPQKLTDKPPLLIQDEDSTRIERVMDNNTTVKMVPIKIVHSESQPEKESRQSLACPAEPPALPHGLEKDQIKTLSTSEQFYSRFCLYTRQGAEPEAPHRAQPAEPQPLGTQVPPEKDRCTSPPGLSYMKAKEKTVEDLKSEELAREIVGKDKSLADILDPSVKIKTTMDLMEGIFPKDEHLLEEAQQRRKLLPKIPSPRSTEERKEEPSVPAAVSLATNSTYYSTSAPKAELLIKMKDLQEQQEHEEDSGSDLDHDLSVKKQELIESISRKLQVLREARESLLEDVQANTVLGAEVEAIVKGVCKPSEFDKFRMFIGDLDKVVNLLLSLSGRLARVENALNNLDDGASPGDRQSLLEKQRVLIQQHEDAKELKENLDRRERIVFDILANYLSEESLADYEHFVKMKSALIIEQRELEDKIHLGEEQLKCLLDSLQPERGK

Substance: GPDGIITVNDFTQNPRVQLE (Biotin-GPDGIITVNDFTQNPRVQLE) [ropporin]
- Classification [1]: 1 (A450 nm 0-1)

Substance: MTSSSSVV [CLASP-2 8-mer, unlabeled peptide of the C-terminal 8 amino acids of CLASP-2]
- % binding (DLG-1; [8]): 105%
- % binding (DLG-1; [9]): 75%
- % binding (DLG-1; [10]): 93%
- % binding (PSD-95; [8]): 90%
- % binding (PSD-95; [9]): 80%
- % binding (PSD-95; [10]): 85%
- % binding (PSD-95; biotinylated 20-mer KV1.3 10 uM, competitor 50 uM): 82%

Substance: SEGGRPTRGPRLQGRRVTQV [HPV E6 52 (modified)]
- Classification [1]: 0 (A450 nm 0, i.e., not found to interact)
- Classification ([2]; PDZ BAI-1, PDZ Domain 2): 5 (A450 nm of 4 more than 2× repeated)

Substance: ACM3_HUMAN (Biotin-QQYQQRQSVIFHKRAPEQAL)
- Classification ([3]; PDZ KIAA807): 1 (A450 nm 0-1)
- Classification ([3]; PDZ KIAA0807(S), PDZ Domain 1): 1 (A450 nm 0-1)
- Classification [4]: 1 (A450 nm 0-1)
- Classification [5]: 1 (A450 nm 0-1)

Substance: REVKFTSL [CD46 8-mer, unlabeled peptide of the C-terminal 8 amino acids of CD46]
- % binding (DLG-1; [11]): 90%
- % binding (DLG-1; [12]): 68%
- % binding (DLG-1; [13]): 90%
- % binding (DLG-1; [14]): 63%
- % binding (PSD-95; [11]): 95%
- % binding (PSD-95; [12]): 65%
- % binding (PSD-95; [13]): 81%
- % binding (PSD-95; [14]): 71%

Substance: GTSDMKDLVGNIEQNEHSVI [Mannose Receptor]
- Classification ([3]; PDZ KIAA807): 1 (A450 nm 0-1)
- Classification ([3]; PDZ KIAA0807(S), PDZ Domain 1): 1 (A450 nm 0-1)
- Classification [5]: 1 (A450 nm 0-1)
- Classification ([2]; PDZ FLJ 00011, PDZ Domain 1): 1 (A450 nm 0-1)

Substance: KDSRPSFVGSSSGHTSTTL (Biotin-KDSRPSFVGSSSGHTSTTL) [CDw128B]
- Classification ([3]; PDZ KIAA807): 5 (A450 nm of 4 more than 2× repeated)
- Classification ([3]; PDZ KIAA0807(S), PDZ Domain 1): 5 (A450 nm of 4 more than 2× repeated)
- Classification [6]: 2 (A450 nm 1-2)
- Classification ([2]; PDZ SHANK, PDZ Domain 1): 3 (A450 nm 2-3)

Substance: SSPTYRALLLQGPSQSSSEA (Biotin-SSPTYRALLLQGPSQSSSEA)
- Classification [7]: 1 (A450 nm 0-1)

Substance: SGGNRARQERLQRRRETQV (Biotin-SGGNRARQERLQRRRETQV) [HPV E6 #18]
- Classification [1]: 4 (A450 nm 3-4)
- Classification ([2]; PDZ BAI-1, PDZ Domain 2): 5 (A450 nm of 4 more than 2× repeated)

Substance: SVV [CLASP-2 3-mer, acetylated peptide of the C-terminal 3 amino acids of CLASP-2]
- % binding (DLG-1; [15]): 72%
- % binding (DLG-1; [16]): 45%
- % binding (DLG-1; [17]): 51%
- % binding (DLG-1; [18]): 46%
- % binding (DLG-1; [19]): 61%
- % binding (DLG-1; [20]): 59%
- % binding (PSD-95; [15]): 75%
- % binding (PSD-95; [16]): 59%
- % binding (PSD-95; [17]): 55%
- % binding (PSD-95; [18]): 55%
- % binding (PSD-95; [19]): 82%
- % binding (PSD-95; [20]): 63%
- % binding (PSD-95; biotinylated 20-mer KV1.3 10 uM, competitor 500 uM): 81%
- % binding (PSD-95; biotinylated 20-mer KV1.3 10 uM, competitor 1000 uM): 50%
- reduction of labeled ligand binding (PSD-95; competitor 1 mM, 50-100-fold excess, summary of TABLE 6, PDZ not given): up to 50%
